In the experiment the target is human ST2 on primary human cells (human) (UniProt Q01638). Description: cell-based or functional assay.
Sequence of human ST2 on primary human cells (human) (Q01638 19-556 A78X, form in doubt): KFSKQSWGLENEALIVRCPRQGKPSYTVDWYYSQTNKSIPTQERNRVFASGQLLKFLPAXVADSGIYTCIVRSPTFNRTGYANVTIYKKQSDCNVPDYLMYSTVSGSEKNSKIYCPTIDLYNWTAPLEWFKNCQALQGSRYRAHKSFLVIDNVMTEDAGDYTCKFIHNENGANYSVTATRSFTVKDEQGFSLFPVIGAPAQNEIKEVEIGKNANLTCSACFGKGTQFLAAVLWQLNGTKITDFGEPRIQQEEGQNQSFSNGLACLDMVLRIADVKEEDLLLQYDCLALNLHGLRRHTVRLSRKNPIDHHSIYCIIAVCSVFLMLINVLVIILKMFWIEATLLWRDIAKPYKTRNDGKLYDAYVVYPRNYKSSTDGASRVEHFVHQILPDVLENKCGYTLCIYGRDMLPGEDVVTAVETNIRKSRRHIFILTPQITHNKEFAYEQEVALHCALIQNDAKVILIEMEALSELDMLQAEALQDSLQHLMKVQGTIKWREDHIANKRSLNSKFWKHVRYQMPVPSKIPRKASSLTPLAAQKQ

The substance 97203 (antibody) showed an IC50 (ug/ml), inhibition of IL-33-dependent IFN-γ release from human NK cells (IL-33 10 ng/mL and IL-12) of 0.385 µg/mL.

(Values after US20170002079A1.)
